# In IntAct's records for PubMed 15197186:
# Tests used:
# mob1a_human MOB1A [1] = target: mob1a_human MOB1A (UniProt Q9H8S9)
# mob1a_human MOB1A [2] = target: mob1a_human MOB1A (UniProt Q9H8S9); remark: listed apart in the source
# mob1a_human MOB1A, sequence (Q9H8S9 whole entry): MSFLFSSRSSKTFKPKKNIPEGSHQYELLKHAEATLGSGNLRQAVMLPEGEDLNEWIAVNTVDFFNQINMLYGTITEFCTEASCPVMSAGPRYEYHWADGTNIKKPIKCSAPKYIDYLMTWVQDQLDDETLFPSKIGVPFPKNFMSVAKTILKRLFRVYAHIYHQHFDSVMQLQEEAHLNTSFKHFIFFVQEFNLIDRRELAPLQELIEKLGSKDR
# Serine/threonine-protein kinase 38 (Homo sapiens), Q15208 T74A, sequence (Q15208 whole entry T74A): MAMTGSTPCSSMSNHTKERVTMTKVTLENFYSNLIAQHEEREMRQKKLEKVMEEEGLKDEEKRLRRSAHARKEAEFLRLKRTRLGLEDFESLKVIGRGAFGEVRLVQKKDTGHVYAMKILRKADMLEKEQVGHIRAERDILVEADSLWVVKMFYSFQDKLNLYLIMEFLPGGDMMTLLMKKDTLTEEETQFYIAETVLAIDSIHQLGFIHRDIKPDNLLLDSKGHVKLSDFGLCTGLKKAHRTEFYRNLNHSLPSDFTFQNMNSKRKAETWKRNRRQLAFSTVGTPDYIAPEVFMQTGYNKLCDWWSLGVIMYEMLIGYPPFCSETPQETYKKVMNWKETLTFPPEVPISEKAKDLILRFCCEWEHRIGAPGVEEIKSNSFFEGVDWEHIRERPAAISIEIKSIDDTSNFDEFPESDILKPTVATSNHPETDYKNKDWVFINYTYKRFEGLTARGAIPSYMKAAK
# Serine/threonine-protein kinase 38 (Homo sapiens), Q15208 K24A, sequence (Q15208 whole entry K24A): as the sequence (Q15208 whole entry T74A) above, with K24A, A74T counted along it
# Serine/threonine-protein kinase 38 (Homo sapiens), Q15208 R78A, sequence (Q15208 whole entry R78A): as the sequence (Q15208 whole entry T74A) above, with A74T, R78A counted along it
# Serine/threonine-protein kinase 38 (Homo sapiens), Q15208 L79A, sequence (Q15208 whole entry L79A): as the sequence (Q15208 whole entry T74A) above, with A74T, L79A counted along it
# Serine/threonine-protein kinase 38-like (Homo sapiens), Q9Y2H1 Y32A, sequence (Q9Y2H1 whole entry Y32A): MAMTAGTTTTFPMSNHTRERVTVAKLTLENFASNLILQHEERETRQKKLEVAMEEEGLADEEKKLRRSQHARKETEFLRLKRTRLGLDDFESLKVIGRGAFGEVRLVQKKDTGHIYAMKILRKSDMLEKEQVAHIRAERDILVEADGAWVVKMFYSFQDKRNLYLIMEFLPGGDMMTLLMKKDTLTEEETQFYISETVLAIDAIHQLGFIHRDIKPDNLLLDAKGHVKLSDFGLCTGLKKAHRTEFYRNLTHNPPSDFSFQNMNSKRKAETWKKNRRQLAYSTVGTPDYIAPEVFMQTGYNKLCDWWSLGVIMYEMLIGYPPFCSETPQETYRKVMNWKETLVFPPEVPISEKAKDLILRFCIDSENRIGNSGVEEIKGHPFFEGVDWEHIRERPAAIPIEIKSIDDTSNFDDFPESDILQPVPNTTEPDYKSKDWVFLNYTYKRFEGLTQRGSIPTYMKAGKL
# Serine/threonine-protein kinase 38 (Homo sapiens), Q15208 R44A, sequence (Q15208 whole entry R44A): as the sequence (Q15208 whole entry T74A) above, with R44A, A74T counted along it
# Serine/threonine-protein kinase 38 (Homo sapiens), Q15208 Y31A, sequence (Q15208 whole entry Y31A): as the sequence (Q15208 whole entry T74A) above, with Y31A, A74T counted along it
# Serine/threonine-protein kinase 38 (Homo sapiens), Q15208 R41A, sequence (Q15208 whole entry R41A): as the sequence (Q15208 whole entry T74A) above, with R41A, A74T counted along it
Substance,effect of a mutation on the interaction (mob1a_human MOB1A [1]),effect of a mutation on the interaction (mob1a_human MOB1A [2])
"Serine/threonine-protein kinase 38 (Homo sapiens), Q15208 R41A",disrupting interaction,–
"Serine/threonine-protein kinase 38 (Homo sapiens), Q15208 L79A",decreasing interaction,–
"Serine/threonine-protein kinase 38 (Homo sapiens), Q15208 T74A",disrupting interaction,–
"Serine/threonine-protein kinase 38 (Homo sapiens), Q15208 Y31A",disrupting interaction,–
"Serine/threonine-protein kinase 38 (Homo sapiens), Q15208 R44A",decreasing interaction,–
"Serine/threonine-protein kinase 38 (Homo sapiens), Q15208 K24A",decreasing interaction,–
"Serine/threonine-protein kinase 38-like (Homo sapiens), Q9Y2H1 Y32A",–,disrupting interaction
"Serine/threonine-protein kinase 38 (Homo sapiens), Q15208 R78A",disrupting interaction,–
